This is an account of results in patent US20210388087A1.

Where a chain is given by its changes, count along the chain named. Names and notes keep the numbering of the source.

The chains are these.
T1: Human CD3eg linker (human)
T1 chain: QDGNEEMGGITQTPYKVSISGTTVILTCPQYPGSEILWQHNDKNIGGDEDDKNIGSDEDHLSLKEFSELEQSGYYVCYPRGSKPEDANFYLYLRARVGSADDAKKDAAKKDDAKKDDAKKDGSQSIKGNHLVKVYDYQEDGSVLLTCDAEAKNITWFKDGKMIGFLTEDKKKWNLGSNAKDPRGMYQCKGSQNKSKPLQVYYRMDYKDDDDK

B1: Ctrl/Ctrl × CD3 trispecific antibody (antibody, part only; not given: control Fvs, constant regions, Fc, V domains shown, not shown: another chain or arm of the molecule; a dimerising Fc or GST; large carriers)
VH: QVQLVESGGGLVQPGRSLRLSCAASGFTFSNAWMHWVRQAPGKGLEWVAQIKDRANSYNTYYAESVKGRFTISRDDSKNSIYLQMNSLKTEDTAVYYCRYVHYTTYAGSSFSYGVDAWGQGTTVTVSS
VL: DIVMTQSPLSLPVTPGEPASISCRSSQPLVHSNRNTYLHWYQQKPGQAPRLLIYKVSNRFSGVPDRFSGSGSGTDFTLKISRVEAEDVGVYYCGQGTQVPYTFGQGTKLEIK
B2: GPC3/Ctrl × CD3 trispecific antibody (antibody, part only; not given: control Fv, constant regions, Fc, V domains shown, not shown: another chain or arm of the molecule; a dimerising Fc or GST; large carriers; small tags and cut ends)
VH 1: B1 VH
VL 1: B1 VL
VH 2: QVQLVQSGAEVKKPGASVTVSCKASGYTFTDYEMHWIRQPPGEGLEWIGAIDGPTPDTAYSEKFKGRVTLTADKSTSTAYMELSSLTSEDTAVYYCTRFYSYTYWGQGTLVTVSS
VL 2: B1 VL
B3: H1647L0581 (antibody, V domains shown)
VH: QVQLVESGGGLVQPGRSLRLSCAASGFKFSNTWFHWVRQAPGKGLEWVAQIKDYYNDYAAYYAPSVKGRFTISRDDSKNSIYLQMNSLKTEDTAVYYCHYVHYASASTLLPAEGVDAWGQGTTVTVSS
VL: B1 VL with R24Q, S25P, P28E, L29V, S32M, S61P, G94A, Q98S, V99H, Y101F
B4: H183/L072 VL H34F (antibody, name in Kabat numbering, V domains shown)
VH: B3 VH with K28T, T32A, F34M, Y54K, Y55G, D57A, L109V, E113F
VL: B1 VL with R24Q, S25A, P28E, S32M, H39F, S61P, G94A, Q98S, Y101F
B5: H183/L072 VL H34Y (antibody, name in Kabat numbering, V domains shown)
VH: B3 VH with K28T, T32A, F34M, Y54K, Y55G, D57A, L109V, E113F
VL: B1 VL with R24Q, S25A, P28E, S32M, H39Y, S61P, G94A, Q98S, Y101F
B6: H183/L072 VL H34W (antibody, name in Kabat numbering, V domains shown)
VH: B3 VH with K28T, T32A, F34M, Y54K, Y55G, D57A, L109V, E113F
VL: B1 VL with R24Q, S25A, P28E, S32M, H39W, S61P, G94A, Q98S, Y101F
B7: H183/L072 VL A25W (antibody, name in Kabat numbering, V domains shown)
VH: B3 VH with K28T, T32A, F34M, Y54K, Y55G, D57A, L109V, E113F
VL: B1 VL with R24Q, S25W, P28E, S32M, S61P, G94A, Q98S, Y101F
B8: H183/L072 VL L27bY (antibody, name in Kabat numbering, V domains shown)
VH: B3 VH with K28T, T32A, F34M, Y54K, Y55G, D57A, L109V, E113F
VL: B1 VL with R24Q, S25A, P28E, L29Y, S32M, S61P, G94A, Q98S, Y101F
B9: H183/L072 VL A25Y (antibody, name in Kabat numbering, V domains shown)
VH: B3 VH with K28T, T32A, F34M, Y54K, Y55G, D57A, L109V, E113F
VL: B1 VL with R24Q, S25Y, P28E, S32M, S61P, G94A, Q98S, Y101F
B10: H183/L072 with V51Y (Kabat) in VL dBBDu072L (antibody, name in Kabat numbering, V domains shown)
VH: B3 VH with K28T, T32A, F34M, Y54K, Y55G, D57A, L109V, E113F
VL: B1 VL with R24Q, S25A, P28E, S32M, V56Y, S61P, G94A, Q98S, Y101F
B11: H183/L072 with P95Y (Kabat) in VL dBBDu072L (antibody, name in Kabat numbering, V domains shown)
VH: B3 VH with K28T, T32A, F34M, Y54K, Y55G, D57A, L109V, E113F
VL: B1 VL with R24Q, S25A, P28E, S32M, S61P, G94A, Q98S, P100Y, Y101F
B12: H183/L072 with K50Y (Kabat) in VL dBBDu072L (antibody, name in Kabat numbering, V domains shown)
VH: B3 VH with K28T, T32A, F34M, Y54K, Y55G, D57A, L109V, E113F
VL: B1 VL with R24Q, S25A, P28E, S32M, K55Y, S61P, G94A, Q98S, Y101F
B13: H183/L072 with G91Y (Kabat) in VL dBBDu072L (antibody, name in Kabat numbering, V domains shown)
VH: B3 VH with K28T, T32A, F34M, Y54K, Y55G, D57A, L109V, E113F
VL: B1 VL with R24Q, S25A, P28E, S32M, S61P, G94A, G96Y, Q98S, Y101F
B14: H183/L072 with T92Y (Kabat) in VL dBBDu072L (antibody, name in Kabat numbering, V domains shown)
VH: B3 VH with K28T, T32A, F34M, Y54K, Y55G, D57A, L109V, E113F
VL: B1 VL with R24Q, S25A, P28E, S32M, S61P, G94A, T97Y, Q98S, Y101F
B15: H183/L072 with Q90Y (Kabat) in VL dBBDu072L (antibody, name in Kabat numbering, V domains shown)
VH: B3 VH with K28T, T32A, F34M, Y54K, Y55G, D57A, L109V, E113F
VL: B1 VL with R24Q, S25A, P28E, S32M, S61P, G94A, Q95Y, Q98S, Y101F
B16: CE115HA000/GLS3000 H27dD (antibody, IgG1, name in Kabat numbering, V domains shown)
VH: QVQLVESGGGVVQPGRSLRLSCAASGFTFSNAWMHWVRQAPGKGLEWVAQIKAKSNNYATYYAESVKGRFTISRDDSKNSLYLQMNSLKTEDTAVYYCRYVHYGAYYGVDAWGQGTTVTVSS
VL: B1 VL with P28S, H31D
B17: CE115HA000/GLS3000 N28D (antibody, IgG1, name in Kabat numbering, V domains shown)
VH: B16 VH
VL: B1 VL with P28S, N33D
B18: CE115HA000/GLS3000 G91S (antibody, IgG1, name in Kabat numbering, V domains shown)
VH: B16 VH
VL: B1 VL with P28S, G96S
B19: CE115HA000/GLS3000 H34R (antibody, IgG1, name in Kabat numbering, V domains shown)
VH: B16 VH
VL: B1 VL with P28S, H39R

Sequence of CD3 epsilon homodimer protein (P07766 23-126): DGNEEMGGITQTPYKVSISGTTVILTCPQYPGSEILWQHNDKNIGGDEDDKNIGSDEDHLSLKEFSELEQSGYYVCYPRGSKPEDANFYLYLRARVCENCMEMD
Sequence of Human CD137 ECD (human) (chain, as listed by the source limits assumed): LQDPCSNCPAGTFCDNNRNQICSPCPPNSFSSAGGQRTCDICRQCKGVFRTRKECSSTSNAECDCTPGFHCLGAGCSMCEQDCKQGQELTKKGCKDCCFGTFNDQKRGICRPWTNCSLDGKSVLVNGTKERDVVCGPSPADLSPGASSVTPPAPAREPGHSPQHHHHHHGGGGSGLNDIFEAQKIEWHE

The first experiment deals with Human CD3eg linker (human). The experiment in a line: SPR (Biacore T200), 37 degrees C, antibody captured by anti-human Fc on CM4 chip, recombinant human CD3 as analyte, 1:1 model.
Conditions: not given
(Surface plasmon resonance follows binding to a sensor surface in real time, without labels.)
As usually defined, the Kd is the constant that tells how readily two partners part at equilibrium. Usually koff stands for a measure of how fast the partners let go of each other. What is called kon is the rate constant with which the complex forms. For the molecule B1, the Kd is 17.5 nM, the koff was found to be 0.00147 s⁻¹ and the kon is 83700 M⁻¹ s⁻¹. On to B2, for which the Kd came to 17.8 nM, the koff was determined as 0.00151 s⁻¹ and the kon was 85000 M⁻¹ s⁻¹.

A further experiment has as its target T1, Human CD3eg linker (human). The experiment in a line: SPR Biacore T200, 25 C, Ab captured on anti-human Fc, antigen as analyte. The note with it: remark: other sources report otherwise.
On to B3, for which the Kd was determined as 2280 nM, the koff is 0.101 s⁻¹ and the kon worked out at 44300 M⁻¹ s⁻¹.

The target in the next experiment is Human CD3eg linker (human). The experiment in a line: SPR; fold vs parent H183/L072.
Conditions: not given
Consider B4, for which the fold change of affinity came to 0 fold. Same read-out and setting: the same measure for B5: 0 fold; for B6: 0 fold. Same read-out and setting: the same measure for B7: 0 fold; for B8: 0 fold. Take B9: the fold change of affinity worked out at 0 fold.

A further experiment has as its target Human CD3eg linker (human). Nature of the experiment: affinity relative to template H183/L072, single-mutation scan.
Conditions: not given
As to B10, the fold change of affinity for CD3 amounted to 0 fold. As for B11, the fold change of affinity for CD3 was 0 fold. Consider B12, for which the fold change of affinity for CD3 came out at 0 fold. Still for that read-out and setting: the same measure for B13: 0 fold; for B14: 0 fold. B15: the fold change of affinity for CD3 was 0 fold.

Another experiment concerns the target CD3 epsilon homodimer protein (UniProt P07766). Nature of the experiment: SPR, antibody over immobilised CD3e homodimer.
Conditions: not given
As to B16, the KD ratio to GLS3000 stood at 13600. With B17, the KD ratio to GLS3000 came out at 4460. B18: the KD ratio to GLS3000 worked out at 72100.

As to B19, the KD ratio to GLS3000 came to 85800.

Another experiment addresses Human CD137 ECD (human). The experiment in a line: Biacore SPR, vs parent H183/L072.
Conditions: not given
B4: the fold change of affinity came out at 0 fold. B5: the fold change of affinity was 0 fold. The same measure, in the same setting: with B6 the figure was 0 fold; with B7, 0 fold; with B8, 0 fold. As to B9, the fold change of affinity is 0 fold.
